Experimental data reported in US20140106371A1.

Columns and labels:
[1] = molecular target: asialotransferrin (human) (UniProt P02787); assay: qualitative ELLA, lectin 2 µg/mL
[2] = molecular target: Gal-α1,3-Gal-BSA glycoconjugate (UniProt P02769); assay: ELLA lectin dose response
Chain of Gal-α1,3-Gal-BSA glycoconjugate (P02769 25-607 limits assumed): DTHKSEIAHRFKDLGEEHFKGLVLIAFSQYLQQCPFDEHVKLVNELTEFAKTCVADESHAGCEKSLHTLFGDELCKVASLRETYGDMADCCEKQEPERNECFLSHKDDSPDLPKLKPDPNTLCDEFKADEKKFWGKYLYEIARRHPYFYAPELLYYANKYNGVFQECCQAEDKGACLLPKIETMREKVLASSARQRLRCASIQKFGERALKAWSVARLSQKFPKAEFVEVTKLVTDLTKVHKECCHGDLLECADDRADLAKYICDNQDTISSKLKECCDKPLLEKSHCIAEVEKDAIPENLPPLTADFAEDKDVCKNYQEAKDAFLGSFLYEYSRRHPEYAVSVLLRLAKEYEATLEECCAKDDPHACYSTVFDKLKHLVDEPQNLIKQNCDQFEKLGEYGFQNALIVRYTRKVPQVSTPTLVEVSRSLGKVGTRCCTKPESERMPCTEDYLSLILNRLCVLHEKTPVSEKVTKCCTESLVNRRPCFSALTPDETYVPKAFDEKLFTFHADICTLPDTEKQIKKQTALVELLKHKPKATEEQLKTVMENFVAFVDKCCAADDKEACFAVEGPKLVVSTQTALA

Chain of asialotransferrin (human) (P02787 20-698 limits assumed): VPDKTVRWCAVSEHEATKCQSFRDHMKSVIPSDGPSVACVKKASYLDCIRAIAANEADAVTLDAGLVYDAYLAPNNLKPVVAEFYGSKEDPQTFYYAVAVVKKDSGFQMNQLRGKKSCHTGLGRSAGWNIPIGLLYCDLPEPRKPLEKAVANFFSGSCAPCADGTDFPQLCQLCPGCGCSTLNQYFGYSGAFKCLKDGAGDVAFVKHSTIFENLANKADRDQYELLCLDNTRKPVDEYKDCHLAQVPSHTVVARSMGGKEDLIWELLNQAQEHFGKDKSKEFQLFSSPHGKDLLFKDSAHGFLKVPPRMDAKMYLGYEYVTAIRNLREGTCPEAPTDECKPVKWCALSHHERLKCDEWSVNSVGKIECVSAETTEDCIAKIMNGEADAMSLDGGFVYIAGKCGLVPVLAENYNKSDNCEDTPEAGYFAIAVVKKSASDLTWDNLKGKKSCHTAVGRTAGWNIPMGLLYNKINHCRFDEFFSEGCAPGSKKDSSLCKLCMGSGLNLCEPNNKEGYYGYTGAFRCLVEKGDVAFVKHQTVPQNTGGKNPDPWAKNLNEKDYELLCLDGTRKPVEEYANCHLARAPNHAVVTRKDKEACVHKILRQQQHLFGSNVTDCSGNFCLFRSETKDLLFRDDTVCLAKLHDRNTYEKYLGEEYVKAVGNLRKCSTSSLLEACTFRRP

## H50N (rPA-ILNm protein) (from UniProt Q05097 1-122)
[1]
  ELLA signal relative to rPA-ILNmE6: 0.5 fold

## H50N:Q53G (from UniProt Q05097 1-122)
[1]
  ELLA signal relative to rPA-ILNmE6: < 0.5 fold

## rPA-ILN (recombinant wild type PA-IL with an N-terminal RGS-6HIS affinity tag) (from UniProt Q05097 1-122)
[2]
  lectin concentration at which the ELLA signal reached saturation: > 1.25 µg/mL
